This assay has as its target Rabbit skeletal F-actin (rabbit), P68135.

B1: bovine β-cardiac myosin S1, Q9BE39 1-1935; P85100 1-199 (domain or fragment)
heavy: MVDAEMAAFGEAAPYLRKSEKERLEAQTRPFDLKKDVFVPDDKEEFVKATILSREGGKVTAETEHGKTVTVKEDQVLQQNPPKFDKIEDMAMLTFLHEPAVLYNLKERYASWMIYTYSGLFCVTINPYKWLPVYNAEVVAAYRGKKRSEAPPHIFSISDNAYQYMLTDRENQSILITGESGAGKTVNTKRVIQYFAVIAAIGDRSKKEQATGKGTLEDQIIQANPALEAFGNAKTVRNDNSSRFGKFIRIHFGATGKLASADIETYLLEKSRVIFQLKAERDYHIFYQILSNKKPELLDMLLITNNPYDYAFISQGETTVASIDDAEELMATDNAFDVLGFTTEEKNSMYKLTGAIMHFGNMKFKLKQREEQAEPDGTEEADKSAYLMGLNSADLLKGLCHPRVKVGNEYVTKGQNVQQVVYAKGALAKAVYERMFNWMVTRINATLETKQPRQYFIGVLDIAGFEIFDFNSFEQLCINFTNEKLQQFFNHHMFVLEQEEYKKEGIEWEFIDFGMDLQACIDLIEKPMGIMSILEEECMFPKATDMTFKAKLFDNHLGKSSNFQKPRNIKGKPEAHFSLIHYAGTVDYNIIGWLQKNKDPLNETVVDLYKKSSLKMLSSLFANYAGFDTPIEKGKGKAKKGSSFQTVSALHRENLNKLMTNLRSTHPHFVRCIIPNETKSPGVIDNPLVMHQLRCNGVLEGIRICRKGFPNRILYGDFRQRYRILNPAAIPEGQFIDSRKGAEKLLGSLDIDHNQYKFGHTKVFFKAGLLGLLEEMRDERLSRIITRIQAQSRGVLSRMEFKKLLERRDSLLIIQWNIRAFMGVKNWPWMKLYFKIKPLLKSAETEKEIALMKEEFGRLKEALEKSEARRKELEEKMVSLLQEKNDLQLQVQAEQDNLADAEERCDQLIKNKIQLEAKVKEMTERLEDEEEMNAELTAKKRKLEDECSELKRDIDDLELTLAKVEKEKHATENKVKNLTEEMAGLDEIIAKLTKEKKALQEAHQQALDDLQAEEDKVNTLTKAKVKLEQHVDDLEGSLEQEKKVRMDLERAKRKLEGDLKLTQESIMDLENDKQQLDERLKKKDFELNALNARIEDEQALGSQLQKKLKELQARIEELEEELEAERTARAKVEKLRSDLSRELEEISERLEEAGGATSVQIEMNKKREAEFQKMRRDLEEATLQHEATAAALRKKHADSVAELSEQIDNLQRVKQKLEKEKSEFKLELDDVTSNMEQIIKAKANLEKMCRTLEDQMNEHRSKAEETQRSVNDLTSQRAKLQTENGELSRQLDEKEALISQLTRGKLTYTQQLEDLKRQLEEEVKAKNALAHALQSARHDCDLLREQYEEETEAKAELQRVLSKANSEVAQWRTKYETDAIQRTEELEEAKKKLAQRLQDAEEAVEAVNAKCSSLEKTKHRLQNEIEDLMVDVERSNAAAAALDKKQRNFDKILAEWKQKYEESQSELESSQKEARSLSTELFKLKNAYEESLEHLETFKRENKNLQEEISDLTEQLGSSGKTIHELEKVRKQLEAEKLELQSALEEAEASLEQEEGKILRAQLEFNQIKAEMERKLAEKDEEMEQAKRNHLRVVDSLQTSLDAETRSRNEALRVKKKMEGDLNEMEIQLSHANRLAAEAQKQVKSLQSLLKDTQIQLDDAVRANDDLKENIAIVERRNNLLQAELEELRAVVEQTERSRKLAEQELIETSERVQLLHSQNTSLINQKKKMEADLSQLQTEVEEAVQECRNAEEKAKKAITDAAMMAEELKKEQDTSAHLERMKKNMEQTIKDLQHRLDEAEQIALKGGKKQLQKLEARVRELENELEAEQKRNAESVKGMRKSERRIKELTYQTEEDRKNLLRLQDLVDKLQLKVKAYKRQAEEAEEQANTNLSKFRKVQHELDEAEERADIAESQVNKLRAKSRDIGTKGLNEE
light: not shown
B1: the F-actin concentration dependence of the steady-state ATPase activity of bovine β-cardiac myosin S1 (NADH-coupled assay), Kapp in the absence and in the presence of 100 μmol/L F10 worked out at 20 µmol/L.
